According to the nanobody polyreactivity screen of Harvey et al. (2022):

Test: yeast display, Sf9 membrane polyspecificity reagent, FACS + sequencing; frameworks hold sequencing errors
In short: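 Sorting gates, low and high (top ~1%), were placed on anti-HA fluorescence to track expression and on streptavidin fluorescence to track reagent binding. A clone's polyreactivity label is taken from the gate it came out of. The reagent was 10% biotinylated, detergent-solubilized Sf9 membrane, applied for 1 hour at 4 °C to galactose-induced yeast display cells.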

Row | Sequence | polyreactivity (PSR sort gate)
1 | QVQLVESGGGLVQAGGSLRLSCAASGSNFVWYVMGWYRQAPGKDRELVAAITWSAARTYYADSVKGRFTISRDNAKNTVYLQMNSLKPEDTAVYYCAADGYPLQLYNYWGQGTQVTVSS | low polyreactivity
2 | QVQLVESGGGLVQAGGSLRLSCAASGSNFYFYAMGWYRQAPGKERELVAGITSSGASTYADSVKGRFTISRDNEKNTVYLQMNSLKPEDTAVYYCAAYYPLRKGYGYWGQGTQVTVSS | high polyreactivity
3 | QVQLVESGGGLVQAGGSLRLSCAASGSNIYPNAMGWYRQEPGKEREFVAVISSGGSTYYADSVKGRFTISRDNAKNTVYLQMNSMKPEDTAVYYCAADRGTVSFLYSPRAVDYWGQGTQVTVSS | low polyreactivity
4 | QVQLVESGGGLVQAGGSLRLSCAASGSNLDYNAMGWSRQAPGKERELVAAISTGGRTNYADSVKGRFTISRDNAKNTVYLQMNSLKPDDTAVYYCAADTTTEITDTDYDYWGQGTQVTVSS | low polyreactivity
5 | QVQLVESGGGLVQAGGSLRLSCAASGSNLLRYAMGWYRQAPGKERELVAAIRTIGASTNYADSVKGRYTISRDNAKNTVYLLMNSMKPEDTAVYYCNSYLAEVLPVGKGRLYDYWGQGTQVTVSS | low polyreactivity
6 | QVQLVESGGGLVQAGGSLRLSCAASGSNLVTNSMGWYRQAPGKERELVATITSSGTSTYYADSVKGRFTISRDNAKNTVYLQMNSLKPEDTAVYYCNADDQFAYVVYLWEYHIVQYDYWGQGTQVTVSS | high polyreactivity
7 | QVQLVESGGGLVQAGGSLRLSCAASGSNSGYYVMGWYRQAPGKERELVAAITWRGGSTYYADSVKGRFTISRDNAKNTVYLQMNSLKPEDTAVYYCARSRYLWYTVPPKYGYWGQGTQVTVSS | high polyreactivity
8 | QVQLVESGGGLVQAGGSLRLSCAASGSNVHYMGGERQAPGKERELVAGISWSGGSTYYADSVMGRFTISRDNAKNTVYLQMNSLKPEDTAVDYCAADYYAHQDYRFDYWGQGTQVTVSS | low polyreactivity
9 | QVQLVESGGGLVQAGGSLRLSCAASGSNYRFYAMGWYRQAPGKERELVATISSSGGTTYYADSVKVRITISRDNAKNNVFLQMNSLKPEDTAVYYCAKDAFGWGRVYYYRSGYWGQGTQVTVSS | high polyreactivity
10 | QVQLVESGGGLVQAGGSLRLSCAASGSNYSSNAMGWYRQATGKERELVAAISRSGVTTYYADSVKGRFTISRDNAKNTVYLQMNSLKPEDSAVYYCAAQPYSRLYGRYLGFQYKYDYWGQGTQLTVSS | low polyreactivity
11 | QVQLVESGGGLVQAGGSLRLSCAASGSPFPYVMVWYRQAPGKERELVAAISQRTGSTYYADSVKGRFTISRDNAKNTVYLQMNSLKPEDTAVYYCAKPGYLRPSRYDYWGQGTQVTVSS | high polyreactivity
12 | QVQLVESGGGLVQAGGSLRLSCAASGSPFRGYAMGWYRLAPGKEREFVAAISRRGGTTYYADSVKARFTISRDNAKNTGYLQMNSLKPEDTAVYYCNKVYYQHYLPVDYWGQGTQVTVSS | high polyreactivity
13 | QVQLVESGGGLVQAGGSLRLSCAASGSSFFSNAMGWYRQAPGKERELVASIRSGTRTNYADSVKGRFTISRDNAKNTVYLLMNILKPADTAVYYCAKKWGLDKHRIGHRRLDYWGQGTQVTVSS | low polyreactivity
14 | QVQLVESGGGLVQAGGSLRLSCAASGSSFHTYAMGWYRQAPGKERELVAAINRRTGGTYYADSVKGRFTISRDNAKTTVYLQMNSLKPEDTAVYYCATDWFSYRGGIFDSWGQGTQVTVSS | low polyreactivity
15 | QVQLVESGGGLVQAGGSLRLSCAASGSSFNGNAMGWYRQAPGKERELVAAISRKGGSTYYADSVKGRFTISRDNAKNTVYLQMNSLKPEDTAVYYCATDLTVYYSYYWMYWGQGTQVTVSS | low polyreactivity
16 | QVQLVESGGGLVQAGGSLRLSCAASGSSFPVNGIGWYRQAPGKERELVAVITDSDGSTYYADSVKGRFTISRDNAKNTVYLQMNSLKPEDTAVYYCAADDYAYSYGYWLTYDYWGQGTQVTVSS | low polyreactivity
17 | QVQLVESGGGLVQAGGSLRLSCAASGSSFRVYAMGWSRQAPGKERELVASISRRGGSTYYADSVKGRFTISRDNAKTTVYIQMNSLKPEDTAVYYCNVPYYSFRDVSSYYSGQGTQVTVSS | high polyreactivity
18 | QVQLVESGGGLVQAGGSLRLSCAASGSSFSRYDMGWYRQAPGKERELVATITRPGRTYYADSVKGRFTISRDNATKTVYLQMNSLKPEDTAVYYCAKDAGKTYYVDGSLEYDSWGQGTQVTVSS | low polyreactivity
19 | QVQLVESGGGLVQAGGSLRLSCAASGSSFTYYTMGWYRQAPAKERELVAAISWSGGRTYYADSVTGRFTISRDNAKNTVYLQMNSLKPEDTAVYYCAAGPAPGHDSWGQGTQVTESS | high polyreactivity
20 | QVQLVESGGGLVQAGGSLRLSCAASGSSFVYNVMGWYRQAPGKERELVAAIRWRGGSTYADSVKGRFTISRDNAKNTVYLQMNSLKPEDTAVYYCAAGIPRYWYAGHYDYWGQGSQVTVSS | low polyreactivity
21 | QVQLVESGGGLVQAGGSLRLSCAASGSSIYSYAMGWYRQEPGKERELVAAITTSGGSTYYADSVKGRFTISRDNAKNTDYLQMNSLKPEDTAVYYCNAYFIYEGGWYYKAQYDYWGQGTQVTVSS | low polyreactivity
22 | QVQLVESGGGLVQAGGSLRLSCAASGSSLWENAMGWYRQAPGKERQLVATISVSGGGTYYADSVKGRFTISRDNAKNTVYLQMTSLKPEDTAVYYCTARYGNESQGWADYWGQGTQVTVSS | low polyreactivity

Row | Sequence | polyreactivity (PSR sort gate)
23 | QVQLVESGGGLVQAGGSLRLSCAASGSSLYYNAMGWYRQAPGKERELVAAISWSGGSTYYADSVKGRFTISRDNAKNTVYLQMNSLKPEDTAVSYCAADQSTVLDVGSWGQGTQVTVSS | low polyreactivity
24 | QVQLVESGGGLVQAGGSLRLSCAASGSSVSYYAMGWYRQAPGKERELVAAISDNGDSTYYADSVKGRFTISRDNAKNTVYLQMNSLKPEDTAVYYCDKRYRSYGKSSKRRYYYWGQGTQVTVSS | low polyreactivity
25 | QVQLVESGGGLVQAGGSLRLSCAASGSTCDTNVMGWYRQAPGKERELVAAITTSSSRTYYADSVKGRFTISRDNAKNTGYLQMNSLKPEDTAVYDCAARIHGSWSFDYWGQGTQVTVSS | low polyreactivity
26 | QVQLVESGGGLVQAGGSLRLSCAASGSTCERYAMGWSRQAPGKERELVAVISYRGTSTYYADSVKGRFTISRDNAKNTVYLQMNSLKAEDTAVYDCAAEPYRTVTAYRYSLYWYNYWGQGTQVTVSS | high polyreactivity
27 | QVQLVESGGGLVQAGGSLRLSCAASGSTCFHYSMGWYRQAPGKERELVAAITGTGRTTYADSVKGRFTISRDNAKTTVYLQMNSLKPEDTAVYYCAADVNYYQHRLYYWGQGTQVTVSS | low polyreactivity
28 | QVQLVESGGGLVQAGGSLRLSCAASGSTCTGYTMGWYRQAPGNERELVAAITYRGGSTYYADSVKGRFTISRDNAKNTVYLQKNSLKPEETAVYYCAAVPEYYEYSPYDYWGQGTQVTVSS | low polyreactivity
29 | QVQLVESGGGLVQAGGSLRLSCAASGSTDRYYVMGWYRQAPGKERDLVAGISYRGGTTYYADSVKGRFTISRDNAKNTVYLQMNRLKPEDTAVYYCNAETAAAQASYDRLYVLLDYWGQGTQVTVSS | low polyreactivity
30 | QVQLVESGGGLVQAGGSLRLSCAASGSTDSNAMGWYRQAPGKERELVAAISGTGSRTYYADSVKGRFTISRDNAKNTVYLQMNSLKPEDTAVYYCAAYSGYYRPRYNYWGQGTQVTVSS | high polyreactivity
31 | QVQLVESGGGLVQAGGSLRLSCAASGSTFAANAMGWYRQAPGKERELVAAITSSGGSTFYADSVKGRFTISRDNAKNTVYLQMNSLKPEDTAVYYCNKDIERYVRIYDSWGQGTQVTVSS | low polyreactivity
32 | QVQLVESGGGLVQAGGSLRLSCAASGSTFAAYAMGWYRQAPGKERELVAAISATGGSTYYADSVKGRFTISRDNAKNTVYLQMNRLKPEDTAVYYCAADYPSWYGYRYYYWGQGTQVTVSS | high polyreactivity
33 | QVQLVESGGGLVQAGGSLRLSCAASGSTFAEYAMGWYREAPGKERELVADITWSGGSTYYADSVKGRFTISRDNAKNTVYLQMNSLKPDDTAVYYCYFWPVFYDFYLYGYWGQGTQVTVSS | low polyreactivity
34 | QVQLVESGGGLVQAGGSLRLSCAASGSTFAFNAMGWYRQAPGKERELVAAIYSDGSTDYADSVKGRFSISRDNAKNTVYLQMNSLKPEDPAVYYCADDWGWRYVLPVGWFRYGYWGQGTQVTVSS | low polyreactivity
35 | QVQLVESGGGLVQAGGSLRLSCAASGSTFAFNAMGWYRQAPGKERELVASISGSGSSTYYADSVKGRFTISRDNAKNTVYLQMNSMKPEVTAVYYCDARVGARVSPPRRHGRFNYWGQGTQVTVSS | high polyreactivity
36 | QVQLVESGGGLVQAGGSLRLSCAASGSTFAGNAMGWYRQAPGKERELVAAIDSSTGSTYYADSVKGRFTISRDNAKNTVYLQMNSLKPEDTPVYYCSREYYEGYEYWGLGTQVTVSS | low polyreactivity
37 | QVQLVESGGGLVQAGGSLRLSCAASGSTFAGNGMGWYRQAPGKERELVAGIDVTGGSTYYADSVKGRFTSSRDNAKNTVYLQMNSLKPEDTAVYYCNARYVYHSSFAGFDYWGQGTQVTVSS | low polyreactivity
38 | QVQLVESGGGLVQAGGSLRLSCAASGSTFAINAMGWYRQAPGKERELVAAITYSGGGTYYADSVKGRFTISRENAKNTVYLQMNSLKPEDTAVYYCYAYGRSWVFNYIGVFLYDYWGQGTQVTVSS | low polyreactivity
39 | QVQLVESGGGLVQAGGSLRLSCAASGSTFAINVMGWYRQAPGKERELVAAISSVGGTNYADSVKGRFTISRDNAKNTVYLQMNSLKPEDTAVYYCATVYSSWTVRYDYWGQGTQVTVSS | low polyreactivity
40 | QVQLVESGGGLVQAGGSLRLSCAASGSTFAIYAMGWYRQAHGKERELVAAIRQRAGSTYYADSVKGRFTISRDNAKNTVYLQMNSLKPEDTAVYYCATATRPISRGYWGQGTQVTVSS | low polyreactivity
41 | QVQLVESGGGLVQAGGSLRLSCAASGSTFAKYAMGWYRQAPGKERELVASIRLSGGSTYYADSVKGRFTISRDNAKNTVYLQMNSLKPEDTAVYYCNKPFPYYPDGPNGYDYWGQGTQVTVSS | low polyreactivity
42 | QVQLVESGGGLVQAGGSLRLSCAASGSTFAKYAMGWYRQAPGKERELVAVISWGGGSTYYADSVKGRFTISRDNAKNTVYLQMNSLKPEDTAVYYCAAVYDEYQTTHEYDYWGQGTQVTVSS | low polyreactivity
43 | QVQLVESGGGLVQAGGSLRLSCAASGSTFAKYAMGWYRQAPGKESELVASIRLSGGSTYYADSVKGRFTISRDNAKNTVYVQRNSLKPEDTAVYYCNKQFATFYYGFDYSYWGQGTQVTVSS | low polyreactivity
